One series relates to CD1 male mice. Put plainly: In vivo bioluminescence imaging of mice injected with AAV9 constructs, induction by phenobarbital. The procedure:
• Seed HEK 293-AAV cells in 15 cm plates. To be 70-80% confluent on the day of transfection • Final volume on each plate: 15 ml Day 2: Prepare Transfection Mix: • DNA mix/plate: pDG9 (Packaging plasmid for AAV9): 10.5 μg/pHGTI (Ad. Helper plasmid): 31.5 μg/Vector plasmid: 10.5 μg/Prepare in serum free DMEM/Optimem • Transfer mix/plate: PEI: 125 μl/Prepare in serum free DMEM/Optimem • Add DNA mix into transfection mix. Mix and leave at room temperature for 15-20 mins. • Add 3 ml of transfection mix to each plate drop-wise and gently distribute. Incubate for 24 h. Day 3: • Replace media with 15 ml DMEM supplemented with P/S and 2% FCS. Leave for 48 h. Day 5: • Collect supernatant and pool in 50 ml tubes, 25 ml each tube. Store at −20° C. • Collect cells: Add 5 ml of PBS to each plate→scrape and collect in 50 ml tubes. • To wash plates, add another 1 ml of PBS and collect. • Spin at 1500 rpm for 5 mins. • Remove supernatant and resuspend pelleted cells in 1 ml/plate TD lysis buffer→pool • Store at −80′C. Endonuclease Treatment Cells: • Freeze and thaw pellets 5 times→˜20 mins at 37° C. then ˜20 mins in dry ice (or −80° C.). • Add 25 μl/ml cells of 20% Deoxycholate (or 50 μl/ml of 10% Deoxycholate). • Add 8 μl/ml cells of benzonase. • Incubate at 37° C. for 30 mins. • Spin at 4 Krpm for 30 mins. • Filter supernatant using […] filters. • Store at 4° C. for up to 24 h. Supernatant: • Add 2.5 μl/25 ml supernatant of benzonase. • Add 50 μl/25 ml supernatant of MgSO4. • Incubate at 37° C. for 30 mins. • Spin at 4 Krpm for 30 mins. • Filter supernatant using […] filters. • Store at 4′C for up to 24 h. Hplc Purification • Place both lines in 20% ETOH→template→system wash • Put line A in PBS and line B in Glycine→template→system wash • Place the column in the machine→manual run→flowrate: 5 ml/min→Run for 25 ml or until the UV line is flat. • Prepare FACS tubes (10 for cells and more for supernatant): add 30 μl/tube Tris→put in the machine to collect vectors. • Place the waste lines in a separate tube to be able to run them again through the column. • Run samples (flowrate low, depending on how fast the system and how concentrated the sample is; for cells it is slower, for supernatant it is higher). • After running the waste through the column, wash with PBS→flowrate: 5 ml/min until the UV line is flat. • Set→fraction size: 1 ml; Flowrate: 1 ml/min; concentration % B: 100%→run. • Start collecting: Look for the peak. The peak indicates vector purification. Mark the tubes containing these vectors. • Save programme before exiting. • Wash with PBS→75 ml, 5 ml/min • Wash with Na3PO4 (to store the column in)→75 ml, 5 ml/min • Remove column and store at 4° C. • Wash the machine with PBS→template→system wash • Wash the machine with 20% ETOH→template→system wash • Put both lines in 20% ETOH and shut down • Add 2 L of PBS into a big bucket and put the Dialysis cassette (Side-A-Lyzer; Thermo scientific) to prime. • Collect the vectors from the marked FACS tubes using a syringe and needle and add into the dialysis cassette→remove excess air from the membrane, carefully place the rubber on top of the cassette and let it float in the PBS-containing bucket→leave over night at room temperature on a slow rotating rotor. Next Day: • Prime membrane by adding 5 ml PBS onto a centrifugal filter (Amico Ultra 15; MERCK)→spin for 5 mins at 4 Krpm • Remove excess PBS from inside the membrane. • Take vectors out from the cassette and load onto the membrane→spin for 5 mins at 4 Krpm • Wash the membrane with the vectors inside few times, then collect into 2 ml centrifuge tube filter 0.22 μM (Spin-X; COSTAR) • Spin for 3 mins at 13 Krpm. • Remove filter and aliquot: 1×100 μl (for injection), the rest in 10-2 μl aliquots. • Store in −80° C. • Virus quantification was performed using qRT-PCR with primers and probes for the luciferase gene. Mice Experiment […]

In a further series the test system is AXOL ARE-hepatocytes. The experiment in a line: Luciferase expression from PBREM promoters in AXOL ARE-hepatocytes, induction by CITCO. As to conditions: 1 μM CITCO. Type of series: cell-based, human.
Where [1] appears, read: AAV9, phenobarbital intraperitoneally.

B1: PB1-MinTK: promoter: single mouse PBREM element and MinTK minimal promoter, SEQ ID NO: 7 (nucleic acid)
DNA: TCTGTACTTTCCTGACCTTGGCACAGTGCCACCATCAACTTGCCTGACACCGATCCGGCCCCGCCCAGCGTCTTGTCATTGGCGAATTCGAACACGCAGATGCAGTCGGGGCGGCGCGGTCCGAGGTCCACTTCGCATATTAAGGTGACGCGTGTGGCCTCGAACACCGAGCGACCCTGCAGCGACCCGCTTAACAGCGTCAACAGCGTGCCGCAGATCTCGAGGAGCTTGGCGAGATTTTCAGGAGCTAAGGAAGCTAAAC
modifications: PB1-MinTK
B1: the “luciferase expression before induction” value with CD1 male mice (0 hrs) is “no expression of the luciferase gene”. In the series with CD1 male mice (setting [1]), the “time at which induction is complete” value turned out to be 24 h and the “time of maximal activity after induction” value amounted to 9 h. The “tissue distribution of luciferase expression” value with CD1 male mice (AAV9 via tail vein) is listed as “confined to the liver”. Also, the “expression level compared to CMV-IE” value with AXOL ARE-hepatocytes turned out to be 20%. In addition, the “induction of luciferase expression” value in the series with AXOL ARE-hepatocytes (readout 24 hrs after induction) is given as “around 7 fold”.
